Data reported in patent publication US20250339531A1 (FRED HUTCHINSON CANCER CENTER, published 2025).

T1: Signal transducer and activator of transcription 1-alpha/beta (Homo sapiens, UniProt P42224 2-750)
T1 construct: also called STAT1
T1 sequence (looked up): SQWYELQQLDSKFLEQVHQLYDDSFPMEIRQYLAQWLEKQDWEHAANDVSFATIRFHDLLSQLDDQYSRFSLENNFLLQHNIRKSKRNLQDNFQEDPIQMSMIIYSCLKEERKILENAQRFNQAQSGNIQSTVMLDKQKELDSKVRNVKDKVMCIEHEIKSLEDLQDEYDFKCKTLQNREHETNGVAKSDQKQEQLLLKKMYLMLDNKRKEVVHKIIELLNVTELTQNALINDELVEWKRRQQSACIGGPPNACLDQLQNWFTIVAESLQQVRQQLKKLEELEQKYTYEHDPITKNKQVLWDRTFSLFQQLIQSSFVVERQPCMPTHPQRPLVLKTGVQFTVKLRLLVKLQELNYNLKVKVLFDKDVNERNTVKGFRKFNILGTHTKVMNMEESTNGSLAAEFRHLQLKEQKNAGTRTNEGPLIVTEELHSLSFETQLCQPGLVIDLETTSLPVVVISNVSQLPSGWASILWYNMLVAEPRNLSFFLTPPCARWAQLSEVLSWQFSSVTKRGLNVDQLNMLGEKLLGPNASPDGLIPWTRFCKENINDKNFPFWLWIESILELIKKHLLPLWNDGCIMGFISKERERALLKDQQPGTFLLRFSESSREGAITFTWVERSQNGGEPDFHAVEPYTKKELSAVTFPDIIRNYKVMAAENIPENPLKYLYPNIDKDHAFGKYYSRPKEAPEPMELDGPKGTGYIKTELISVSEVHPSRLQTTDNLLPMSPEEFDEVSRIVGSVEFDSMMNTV

B1: iDUX4aa154-271 (other)
chain: GRAPAQAGGLCSAAPGGGHPAPSWVAFAHTGAWGTGLPAPHVPCAPGALPQGAFVSQAARAAPALQPSQAAPAEGISQPAPARGDFAYAAPAPPDGALSHPQAPRWPPHPGKSREDRD
notes: not shown: N-terminal 3×FLAG tag and NLS
B2: i3XFLAG-NLS-CTDaa154-419mL1dL2 (other)
chain: MDYKDHDGDYKDHDIDYKDDDDKPPKRMRREPKKKRKVGRAPAQAGGLCSAAPGGGHPAPSWVAFAHTGAWGTGLPAPHVPCAPGALPQGAFVSQAARAAPALQPSQAAPAEGISQPAPARGDFAYAAPAPPDGALSHPQAPRWPPHPGKSREDRDPQRDGLPGPCAVAQPGPAQAGPQGQGVLAPPTSQGSPWWGWGRGPQVAGAAWEPQAGAAPPPQPAPPDASASARQGQMQGIPAPSQALQEPAPWSALPCGLLAAEAAASPEFLQQAQPLLETEAPGELEASEEAASLEAPLSEEEYRA
notes: also called longCTDmL1dL2; longCTDmL1DL2

Tests used:
[1] = biological target: T1, Signal transducer and activator of …; assay: anti-FLAG co-IP and western of truncation series in MB135 cells (FIG. 27A)
[2] = biological target: T2, Proteasome subunit alpha type (Homo sapiens); assay: anti-FLAG co-IP LC-MS, exp 4, +Dox +IFNG
T2 construct: also called PSMA6

[3] = biological target: T3, Immunoglobulin kappa variable 2-40 (Homo sapiens); assay: anti-FLAG co-IP LC-MS, exp 4, +Dox +IFNG
T3 construct: also called IGKV2-40

[4] = biological target: T1, Signal transducer and activator of …; assay: anti-FLAG co-IP LC-MS, exp 4, +Dox +IFNG
[5] = biological target: T4, Uncharacterized protein (Fragment) (Homo sapiens); assay: anti-FLAG co-IP LC-MS, exp 4, +Dox +IFNG
T4 construct: also called NA (Homology to TAP2)

T3 sequence (A0A087WW87 20-121): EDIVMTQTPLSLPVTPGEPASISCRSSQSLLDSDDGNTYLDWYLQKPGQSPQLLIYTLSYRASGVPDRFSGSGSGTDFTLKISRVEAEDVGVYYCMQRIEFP

| Binder | binding result [1] | PSMs [2] | PSMs [3] | PSMs [4] | PSMs [5] |
| --- | --- | --- | --- | --- | --- |
| B1 | no binding |  |  |  |  |
| B2 |  | 4 PSMs | 1 PSMs | 18 PSMs | 2 PSMs |
